According to patent US20100317583A1, “TREATMENT OF MELANOMA WITH ALPHA THYMOSIN PEPTIDES IN COMBINATION WITH AN ANTINEOPLASTIC HEAT SHOCK APOPTOSIS ACTIVATOR (HSAA)” (SciClone Pharmaceuticals, Inc., priority 2007, published 2010):
Read-outs that look alike come from different tables or passages of the source. No end group written: not given here.

Assay type: in vivo
Conditions: for Body weight (Mean ± SD) / PI (BW), inhibition of body weight vs vehicle: low-dose arms: TA-1 6 mg/kg s.c. daily, Pac 10 + Ele 10 mg/kg co-i.v. Days 1, 7, 13
Procedure: In this study, the anti-tumor effect of the combined treatment of thymosin alpha-1 (TA-1), Paclitaxel (Pac) and Elesclomol (Ele) was evaluated in C57BL/6 mice bearing B16 melanoma cells. The toxic effects of the dosing regimens were also monitored. A total of 60 mice were implanted subcutaneously with murine B16 cells, followed by treatment with TA-1 or Pac/Ele alone or in combination for 14 consecutive days. TA-1 was given daily via s.c., while Pac and Ele were co-i.v. administered on Day 1, 7 and 13. In total, 6 groups were used: Group 1: vehicle; Group 2: TA-1 6 mg/kg; Group 3: Pac 10 mg/kg+Ele 10 mg/kg; Group 4: Pac 30 mg/kg+Ele 30 mg/kg; Group 5: TA-1 6 mg/kg+Pac 10 mg/kg+Ele 10 mg/kg; and Group 6: TA-1 6 mg/kg+Pac 30 mg/kg+Ele 30 mg/kg. Tumor volume and body weight were measured every three days, and tumor weights were measured on Day 17 at the end of the study.
On Day 1, the animals were randomly assigned into different weight-matched groups, and dosing was started using the regimen according to Table 2. Briefly, TA-1 was administered once daily via subcutaneous (s.c.) injection for 14 consecutive days at a site different from that of tumor cell implantation, while Pac and Ele was administered on Days 1, 7, and 13 via an intravenous (i.v.) injection.
From Day 1 to Day 15, mortality and moribundity were checked twice daily, the body weights were recorded once every 3 days, and tumors were measured using a caliper once every 3 days. At the end of the study (Day 17), the animals were euthanized by CO2 asphyxiation, and the tumors were excised and weighed.
Toxicity of all treatment regimens was evaluated with the body weights of the study animals along with the drug-induced animal deaths. The inhibition of body weight was calculated using Excel according to the equation below:
PIBW(%)=100×(BW vehicle−BW drug treated)/BW vehicle
Inter-group comparison was performed in terms of tumor volume, tumor weight and body weight, using a student's t test. P values of less than 0.05 were considered to be statistically significant.

Question: With “thymosin alpha 1 (SDAAVDTSSEITTKDLKEKKEVVEEAEN; ends and bridges not checked; UniProt P06454 2-29, looked up) [TA-1, 28 amino acid peptide with a molecular weight of 3108; immunomodulator]” as the substance, how does the Body weights (Day 0, animal F1) read?
Answer: 21.5 g

Question: And the Body weights (Day 0, animal F2)?
Answer: 20.8 g

Question: What about the Body weights (Day 0, animal F3) of the same substance?
Answer: 19.3 g

Question: And the Body weights (Day 0, animal F4)?
Answer: 20.0 g

Question: And the Body weights (Day 0, animal F5)?
Answer: 19.9 g

Question: And the Body weights (Day 0, animal M1)?
Answer: 21.8 g

Question: And the Body weights (Day 0, animal M2)?
Answer: 21.5 g

Question: What about the Body weights (Day 0, animal M3) of the same substance?
Answer: 22.9 g

Question: And the Body weights (Day 0, animal M4)?
Answer: 20.7 g

Question: And the Body weights (Day 0, animal M5)?
Answer: 21.4 g

Question: What about the Body weights (Day 3, animal F2) of the same substance?
Answer: 19.0 g

Question: And the Body weights (Day 3, animal F3)?
Answer: 20.2 g

Question: And the Body weights (Day 3, animal F4)?
Answer: 19.8 g

Question: What about the Body weights (Day 3, animal F5) of the same substance?
Answer: 19.1 g

Question: And the Body weights (Day 3, animal M1)?
Answer: 21.1 g

Question: And the Body weights (Day 3, animal M2)?
Answer: 17.8 g

Question: And the Body weights (Day 3, animal M3)?
Answer: 19.7 g

Question: And the Body weights (Day 3, animal M4)?
Answer: 20.4 g

Question: What about the Body weights (Day 3, animal M5) of the same substance?
Answer: 19.8 g

Question: And the “Body weight (Mean ± SD)” value (Day 3)?
Answer: 19.44 ± 1.12 g

Question: What about the “PI (BW), inhibition of body weight vs vehicle” value (Day 3) of the same substance?
Answer: 1.17%

Question: And the Body weights (Day 6, animal F2)?
Answer: 21.2 g

Question: What about the Body weights (Day 6, animal F3) of the same substance?
Answer: 21.2 g

Question: What about the Body weights (Day 6, animal F4) of the same substance?
Answer: 20.7 g

Question: And the Body weights (Day 6, animal F5)?
Answer: 21.5 g

Question: And the Body weights (Day 6, animal M1)?
Answer: 22.8 g

Question: What about the Body weights (Day 6, animal M2) of the same substance?
Answer: 22.3 g

Question: What about the Body weights (Day 6, animal M3) of the same substance?
Answer: 22.7 g

Question: And the Body weights (Day 6, animal M4)?
Answer: 21.1 g

Question: What about the Body weights (Day 6, animal M5) of the same substance?
Answer: 22.2 g

Question: What about the “Body weight (Mean ± SD)” value (Day 6) of the same substance?
Answer: 21.63 ± 0.81 g

Question: And the “PI (BW), inhibition of body weight vs vehicle” value (Day 6)?
Answer: −0.42%

Question: What about the Body weights (Day 9, animal F1) of the same substance?
Answer: 20.4 g

Question: What about the Body weights (Day 9, animal F2) of the same substance?
Answer: 20.7 g

Question: What about the Body weights (Day 9, animal F3) of the same substance?
Answer: 20.4 g

Question: What about the Body weights (Day 9, animal F4) of the same substance?
Answer: 20.2 g

Question: And the Body weights (Day 9, animal F5)?
Answer: 20.0 g

Question: And the Body weights (Day 9, animal M1)?
Answer: 22.5 g

Question: What about the Body weights (Day 9, animal M2) of the same substance?
Answer: 21.2 g

Question: What about the Body weights (Day 9, animal M3) of the same substance?
Answer: 22.5 g

Question: And the Body weights (Day 9, animal M4)?
Answer: 20.9 g

Question: What about the Body weights (Day 9, animal M5) of the same substance?
Answer: 21.7 g

Question: And the “Body weight (Mean ± SD)” value (Day 9)?
Answer: 21.05 ± 0.91 g

Question: And the “PI (BW), inhibition of body weight vs vehicle” value (Day 9)?
Answer: 1.13%

Question: What about the Body weights (Day 12, animal F1) of the same substance?
Answer: 21.5 g

Question: And the Body weights (Day 12, animal F2)?
Answer: 21.3 g

Question: What about the Body weights (Day 12, animal F3) of the same substance?
Answer: 20.2 g

Question: What about the Body weights (Day 12, animal F4) of the same substance?
Answer: 20.1 g

Question: What about the Body weights (Day 12, animal F5) of the same substance?
Answer: 20.1 g

Question: What about the Body weights (Day 12, animal M1) of the same substance?
Answer: 22.4 g

Question: What about the Body weights (Day 12, animal M2) of the same substance?
Answer: 21.5 g

Question: And the Body weights (Day 12, animal M3)?
Answer: 22.4 g

Question: What about the Body weights (Day 12, animal M4) of the same substance?
Answer: 21.0 g

Question: What about the Body weights (Day 12, animal M5) of the same substance?
Answer: 22.2 g

Question: What about the “Body weight (Mean ± SD)” value (Day 12) of the same substance?
Answer: 21.27 ± 0.91 g

Question: What about the “PI (BW), inhibition of body weight vs vehicle” value (Day 12) of the same substance?
Answer: 2.03%

Question: And the Body weights (Day 15, animal F1)?
Answer: 21.7 g

Question: And the Body weights (Day 15, animal F2)?
Answer: 21.5 g

Question: And the Body weights (Day 15, animal F3)?
Answer: 21.2 g

Question: What about the Body weights (Day 15, animal F4) of the same substance?
Answer: 21.2 g

Question: And the Body weights (Day 15, animal F5)?
Answer: 21.1 g

Question: And the Body weights (Day 15, animal M1)?
Answer: 22.5 g

Question: What about the Body weights (Day 15, animal M2) of the same substance?
Answer: 22.5 g

Question: What about the Body weights (Day 15, animal M3) of the same substance?
Answer: 23.4 g

Question: What about the Body weights (Day 15, animal M4) of the same substance?
Answer: 22.0 g

Question: What about the Body weights (Day 15, animal M5) of the same substance?
Answer: 23.6 g

Question: What about the “Body weight (Mean ± SD)” value (Day 15) of the same substance?
Answer: 22.07 ± 0.91 g

Question: What about the “PI (BW), inhibition of body weight vs vehicle” value (Day 15) of the same substance?
Answer: 1.25%
